Results taken from patent publication US9193965B2, “Acetolactate synthase having 2-ketoisovalerate decarboxylase activity and uses thereof” (The Regents of the University of California, priority 2010, dated 2015).
Where a chain is given by its changes, count along the chain named. In names and notes the source's numbering stands.

Substrate: CC(=O)C(=O)O
Experiment: purified protein, by the assay type
Conditions: pH 7.0, 37° C., 0.1 mM TPP, ± standard deviation
Method: The wild type AlsS and AlsS variants were synthesized from a His-tag plasmid in E. coli strain BL21 Star™ (DE3) (Invitrogen (Carlsbad, Calif.)) followed by purification with Ni-nitrilotriacetic acid (NTA) spin columns (Qiagen (Valencia, Calif.)). Protein concentrations were determined by the Bradford assay (Bio-Rad (Hercules, Calif.)).
Als enzyme activity. An enzyme assay for Als activity of AlsS was carried out in 1 ml of morpholinepropanesulfonic acid (MOPS) buffer (pH 7.0) containing 80 nM AlsS, 100 mM MOPS (pH 7.0), 1 mM MgCl2, 0.1 mM TPP, 10 mM acetate, and various concentrations of pyruvate at 37° C. for 10 min. The reaction was terminated by acidification of the solution with 0.1 ml of 50% H2SO4. The mixture was incubated for an additional 25 min at 37° C. to allow for the acid hydrolysis of the acetolactate to acetoin. […] One unit of enzyme activity was defined as the amount of enzyme that converts 1 μmol of substrate into product in 1 minute under these conditions. The Km values for pyruvate and the Vmax were extrapolated after nonlinear regression of the experimental points with the Gauss-Newton method using Matlab.

B1: Bacillus subtilis acetolactate synthase AlsS, wild type (Q at residue 487), SEQ ID NO: 2 (Bacillus subtilis subsp. subtilis str. 168) (protein)
chain: VLTKATKEQKSLVKNRGAELVVDCLVEQGVTHVFGIPGAKIDAVFDALQDKGPEIIVARHEQNAAFMAQAVGRLTGKPGVVLVTSGPGASNLATGLLTANTEGDPVVALAGNVIRADRLKRTHQSLDNAALFQPITKYSVEVQDVKNIPEAVTNAFRIASAGQAGAAFVSFPQDVVNEVTNTKNVRAVAAPKLGPAADDAISAAIAKIQTAKLPVVLVGMKGGRPEAIKAVRKLLKKVQLPFVETYQAAGTLSRDLEDQYFGRIGLFRNQPGDLLLEQADVVLTIGYDPIEYDPKFWNINGDRTIIHLDEIIADIDHAYQPDLELIGDIPSTINHIEHDAVKVEFAEREQKILSDLKQYMHEGEQVPADWKSDRAHPLEIVKELRNAVDDHVTVTCDIGSHAIWMSRYFRSYEPLTLMISNGMQTLGVALPWAIGASLVKPGEKVVSVSGDGGFLFSAMELETAVRLKAPIVHIVWNDSTYDMVAFQQLKKYNRTSAVDFGNIDIVKYAESFGATGLRVESPDQLADVLRQGMNAEGPVIIDVPVDYSDNINLASDKLPKEFGELMKTKAL
Km (other: wild type): 13.6 ± 0.8 mM
kcat (other: wild type): 121 ± 13 s⁻¹

B2: Bacillus subtilis acetolactate synthase AlsS variant Q487S (Bacillus subtilis subsp. subtilis str. 168; Q486S) (protein)
chain: B1 chain with Q487S
Km (other: Q487S): 1.1 ± 0.6 mM
kcat (other: Q487S): 11 ± 6 s⁻¹

B3: Bacillus subtilis acetolactate synthase AlsS variant Q487A, SEQ ID NO: 10 (Bacillus subtilis subsp. subtilis str. 168; Q486A) (protein)
chain: B1 chain with Q487A
Km (other: Q487A): 8.7 ± 0.5 mM
kcat (other: Q487A): 58 ± 8 s⁻¹

B4: Bacillus subtilis acetolactate synthase AlsS variant Q487G (Bacillus subtilis subsp. subtilis str. 168; Q486G) (protein)
chain: B1 chain with Q487G
Km (other: Q487G): 1.6 ± 0.4 mM
kcat (other: Q487G): 11 ± 5 s⁻¹
